For this assay, the target named is Recombinant His-tagged FcγRIIb (UniProt P31994). Kind of assay: ELISA, antibody coated at 2 uM, His-tagged FcγRIIb titrated 1:3 from 2 uM, HRP anti-His; the concentration is that of the receptor. On the technique in general: ELISA stands for enzyme-linked immunosorbent assay.
Sequence of Recombinant His-tagged FcγRIIb (P31994 46-217 limits assumed): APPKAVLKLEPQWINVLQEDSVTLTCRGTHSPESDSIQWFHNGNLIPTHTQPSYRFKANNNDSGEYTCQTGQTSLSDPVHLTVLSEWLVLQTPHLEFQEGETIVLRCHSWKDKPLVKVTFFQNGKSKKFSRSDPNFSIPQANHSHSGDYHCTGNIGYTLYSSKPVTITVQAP

Usually EC50 (read off the curve) stands for the concentration at which the effect is half-maximal. As for Avastin (antibody), the EC50 (read off the curve) stood at 70 nM.

These data come from patent publication US20180334496A1.
